Data as given in patent US20230235034A1 (University of Pennsylvania, published 2023).

Assays:
[1] = molecular target: T1, AD-P1 PFFs (AD-tau seeded recombinant tau preformed fibrils) (human, UniProt P10636 2-758); experiment: sandwich ELISA, tau antigen captured by K9JA
T1 construct: Fibrils made from 36 uM T40 tau (2N4R) and 4 uM AD-tau seeds; also called T40 AD-P1 PFFs
Protocol: (§1) Blocking was performed with BlockAce solution (Abd Serotec) at 4° C. overnight. […] Plates were washed with PBST and HRP-conjugated anti-mouse (Jackson Immunoresearch) secondary antibodies were applied for 2 h at 22° C. Plates were washed and tetramethylbenzidine peroxidase substrate (KPL laboratories) was added to wells to provide a colorimetric readout, quenched with 10% phosphoric acid and then absorbance measured at 450 nm (Molecular Devices SpectraMax).
(§2) Towards the goal of generating conformation-selective tau mAbs, mice were inoculated with human AD brain-derived extracts enriched in insoluble tau (AD-tau). Hybridoma clones generated from immunized mice were screened by sandwich ELISA to simultaneously assess binding of antibodies to tau monomer, AD-tau seeded recombinant tau preformed fibrils (AD-P1 PFFs), and AD-tau. […] Clones that bound AD-tau and AD-P1 PFFs with greater apparent affinity than tau monomer were prioritized and subsequently sub-cloned by limiting dilutions to monoclonal populations.

[2] = molecular target: T2, AD-tau (Alzheimer's brain derived tau) (human, UniProt P10636-8 2-441, limits assumed); experiment: sandwich ELISA, tau antigen captured by K9JA
T2 construct: Misfolded fibrillar tau from brain extract, not a single defined polypeptide; also called human AD-brain-derived pathological tau; AD tau PHF
T2 sequence (P10636 other isoform, or with tags, fused parts or gaps limits assumed): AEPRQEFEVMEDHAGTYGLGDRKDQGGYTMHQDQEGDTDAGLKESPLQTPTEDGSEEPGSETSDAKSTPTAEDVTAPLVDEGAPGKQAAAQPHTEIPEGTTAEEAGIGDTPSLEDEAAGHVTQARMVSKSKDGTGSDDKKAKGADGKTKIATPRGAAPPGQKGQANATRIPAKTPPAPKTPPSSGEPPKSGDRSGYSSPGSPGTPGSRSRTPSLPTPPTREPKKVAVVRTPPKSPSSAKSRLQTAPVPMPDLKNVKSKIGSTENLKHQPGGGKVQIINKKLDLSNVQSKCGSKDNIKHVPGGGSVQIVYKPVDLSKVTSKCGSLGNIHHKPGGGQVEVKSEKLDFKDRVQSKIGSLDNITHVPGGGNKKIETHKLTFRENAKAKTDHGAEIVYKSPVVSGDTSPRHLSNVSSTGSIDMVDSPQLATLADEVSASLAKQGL
Protocol: as §1, §2

[3] = molecular target: T3, T40 tau monomer (full length tau protein, 2N4R isoform) (human, UniProt P10636 2-758); experiment: sandwich ELISA, tau antigen captured by K9JA
T3 construct: no sentence says so outright; also called T40 monomer; human T40 tau
T3 sequence (P10636 other isoform, or with tags, fused parts or gaps limits assumed): as above
Protocol: as §1, §2

[4] = molecular target: K18 fragment of tau (UniProt P10636-8 244-372); experiment: western blot of tau fragments
Chain of K18 fragment of tau (P10636 561-689 limits assumed): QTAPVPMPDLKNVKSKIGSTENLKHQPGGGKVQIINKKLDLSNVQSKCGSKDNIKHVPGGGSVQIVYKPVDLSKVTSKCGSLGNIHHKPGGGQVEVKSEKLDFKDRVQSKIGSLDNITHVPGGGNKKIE
Protocol: (§3) T40 tau monomer or AD-tau were chemically and thermally denatured by 1:10 dilution in 8M guanidine hydrochloride and heating at 100° C. for 15 min, and non-denatured controls were diluted in Tris-buffered saline (TBS) at RT. Denatured or non-denatured tau was then diluted 1:50 in TBS and applied to 0.2 μm nitrocellulose membrane using a vacuum apparatus. For western blots, tau isoforms and fragments were diluted in SDS sample buffer, heated 10 min at 100° C., run on 12.5% SDS-PAGE gels and transferred to 0.2 μm nitrocellulose membrane. […] Infrared dye labeled secondary antibodies (LiCor) were used to detect primary antibody binding, with analysis on a LiCor scanner (LiCor).

[5] = molecular target: ΔK18-P fragment of tau (Homo sapiens (Human), UniProt P10636 1-758); experiment: western blot of tau fragments
Chain of ΔK18-P fragment of tau (P10636 other isoform, or with tags, fused parts or gaps mutant): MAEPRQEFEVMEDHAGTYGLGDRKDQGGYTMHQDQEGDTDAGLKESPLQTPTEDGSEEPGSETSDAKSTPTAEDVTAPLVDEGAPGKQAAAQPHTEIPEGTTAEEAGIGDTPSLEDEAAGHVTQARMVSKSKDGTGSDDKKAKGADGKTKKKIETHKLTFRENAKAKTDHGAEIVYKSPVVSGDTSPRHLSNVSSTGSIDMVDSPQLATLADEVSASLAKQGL
Protocol: as §3

T1 sequence (P10636 other isoform, or with tags, fused parts or gaps limits assumed): as the sequence (P10636 other isoform, or with tags, fused parts or gaps limits assumed) above

B1: DMR7 (antibody, mouse IgG1, V domains shown)
VH: QVQLQQPGAELVRPGASVKLSCKASGYIFTTYWMNWVKQRPGQGLEWIAMIDPSDSETHYNQMFKDKATLTVDTSSSTAYMQLSGLTSEDSAVYYCARGEGYWGQGTTLTVSS
VL: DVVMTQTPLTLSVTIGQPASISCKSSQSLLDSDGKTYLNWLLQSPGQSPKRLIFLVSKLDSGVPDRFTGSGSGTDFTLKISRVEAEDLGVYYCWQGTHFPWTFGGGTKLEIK
notes: Mouse hybridoma monoclonal antibody purified from culture medium; also called tau mAb DMR7; MHC2825
For B1, the EC50 [1] was 0.46 nM, the EC50 [2] was 0.1 nM and the EC50 [3] was 12 nM. B1: no binding (tested: 20 µg/mL) [4]; no binding (tested: 20 µg/mL) [5].

B2: SKT82 (antibody, mouse IgG2a, V domains shown)
VH: EVQLQQSGAELVRSGASVKLSCTASGFNIKDYYMHWVKQRPEQGLEWIGWFDPENGDAEYAPKFQDKATMTADTSSNAAYLQLSSLTSEDTAVYYCNGYLYWGQGTLVTVSS
VL: DVLMTQTPLSLPVSLGDQASISCRSSQNIVHNNGNTYLEWYLQKPGQSPKLLIYKVSNRFSGVPDRFSGSGSGTDFTLKISRVEAEDLGIYYCFQGSHVPHTFGGGTRLEIK
notes: Mouse hybridoma monoclonal antibody purified from culture medium; also called tau mAb SKT82
For B2, the EC50 [1] was 2.38 nM, the EC50 [2] was 0.17 nM and the EC50 [3] was 4.13 nM. B2: no binding (tested: 20 µg/mL) [4]; no binding (tested: 20 µg/mL) [5].
